Measured values reported in the supplement of paper PMC9112550, “Optimization of the antimicrobial peptide Bac7 by deep mutational scanning” (BMC Biology, 2022).

Tested on: Escherichia coli TOP10
Assay: shrunken log2 fold change of peptide-encoding DNA abundance (4.5 h post-induction vs induction); higher = less antimicrobial activity (less host growth inhibition)
Settings: time post-induction: 4.5 h; library: site-saturation at positions 5, 18, 19, 20
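Note: peptides expressed intracellularly from a pBAD plasmid library in pooled LB shake-flask culture, induced with 0.3% L-arabinose, DNA abundance read by NGS, three biological replicates, DESeq2 with apeglm shrinkage.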

Sequence: RRIRIRPPRLPRPRPRPHQVPRP
- shrunken log2 fold change: -0.614

Sequence: RRIRPRPPRLPRPRPRPVELPRP
- shrunken log2 fold change: -0.0271

Sequence: RRIRIRPPRLPRPRPRPPWLPRP
- shrunken log2 fold change: 0.412

Sequence: RRIRKRPPRLPRPRPRPMQHPRP
- shrunken log2 fold change: 0.589

Sequence: RRIRRRPPRLPRPRPRPDCWPRP
- shrunken log2 fold change: 0.676

Sequence: RRIRMRPPRLPRPRPRPSGGPRP
- shrunken log2 fold change: 0.738

Sequence: RRIRIRPPRLPRPRPRPCGQPRP
- shrunken log2 fold change: -0.279

Sequence: RRIRCRPPRLPRPRPRPKQRPRP
- shrunken log2 fold change: 0.222

Sequence: RRIRRRPPRLPRPRPRPESNPRP
- shrunken log2 fold change: 0.219

Sequence: RRIRTRPPRLPRPRPRPNGLPRP
- shrunken log2 fold change: -0.00146

Sequence: RRIRYRPPRLPRPRPRPLATPRP
- shrunken log2 fold change: -0.378

Sequence: RRIRYRPPRLPRPRPRPSVEPRP
- shrunken log2 fold change: -0.481

Sequence: RRIRDRPPRLPRPRPRPPLNPRP
- shrunken log2 fold change: 0.0565

Sequence: RRIRHRPPRLPRPRPRPHDRPRP
- shrunken log2 fold change: -0.218

Sequence: RRIRHRPPRLPRPRPRPTYRPRP
- shrunken log2 fold change: -0.0234

Sequence: RRIRFRPPRLPRPRPRPHWRPRP
- shrunken log2 fold change: 0.121

Sequence: RRIRRRPPRLPRPRPRPERAPRP
- shrunken log2 fold change: 0.79

Sequence: RRIRHRPPRLPRPRPRPEMIPRP
- shrunken log2 fold change: 0.0986

Sequence: RRIRQRPPRLPRPRPRPLWTPRP
- shrunken log2 fold change: -0.042

Sequence: RRIRCRPPRLPRPRPRPKVEPRP
- shrunken log2 fold change: 0.345

Sequence: RRIRARPPRLPRPRPRPEDWPRP
- shrunken log2 fold change: 1.63

Sequence: RRIRMRPPRLPRPRPRPLGGPRP
- shrunken log2 fold change: 0.548

Sequence: RRIRLRPPRLPRPRPRPMKSPRP
- shrunken log2 fold change: 0.00719

Sequence: RRIRIRPPRLPRPRPRPWDNPRP
- shrunken log2 fold change: -0.339

Sequence: RRIRDRPPRLPRPRPRPVMRPRP
- shrunken log2 fold change: 0.592

Sequence: RRIRNRPPRLPRPRPRPPPIPRP
- shrunken log2 fold change: 0.801

Sequence: RRIRWRPPRLPRPRPRPAGIPRP
- shrunken log2 fold change: 0.186

Sequence: RRIRPRPPRLPRPRPRPFTCPRP
- shrunken log2 fold change: -0.206

Sequence: RRIRFRPPRLPRPRPRPRMGPRP
- shrunken log2 fold change: 0.302

Sequence: RRIRIRPPRLPRPRPRPQMTPRP
- shrunken log2 fold change: -0.733

Sequence: RRIRLRPPRLPRPRPRPYLRPRP
- shrunken log2 fold change: -0.132

Sequence: RRIRGRPPRLPRPRPRPCIQPRP
- shrunken log2 fold change: -0.0256

Sequence: RRIRIRPPRLPRPRPRPTFIPRP
- shrunken log2 fold change: -0.677

Sequence: RRIRKRPPRLPRPRPRPITMPRP
- shrunken log2 fold change: -0.122

Sequence: RRIRIRPPRLPRPRPRPNWKPRP
- shrunken log2 fold change: -0.00224

Sequence: RRIRTRPPRLPRPRPRPMFGPRP
- shrunken log2 fold change: 0.115

Sequence: RRIRKRPPRLPRPRPRPMQWPRP
- shrunken log2 fold change: 0.263

Sequence: RRIRRRPPRLPRPRPRPSKWPRP
- shrunken log2 fold change: -0.149

Sequence: RRIRWRPPRLPRPRPRPVIWPRP
- shrunken log2 fold change: 0.147

Sequence: RRIRRRPPRLPRPRPRPGGNPRP
- shrunken log2 fold change: 0.475

Sequence: RRIRNRPPRLPRPRPRPDKPPRP
- shrunken log2 fold change: -0.14

Sequence: RRIRDRPPRLPRPRPRPRAPPRP
- shrunken log2 fold change: 0.359

Sequence: RRIRNRPPRLPRPRPRPLTEPRP
- shrunken log2 fold change: 0.284

Sequence: RRIRFRPPRLPRPRPRPPGHPRP
- shrunken log2 fold change: 0.337

Sequence: RRIRCRPPRLPRPRPRPWIIPRP
- shrunken log2 fold change: -0.577

Sequence: RRIRPRPPRLPRPRPRPEPRPRP
- shrunken log2 fold change: 1.05

Sequence: RRIRCRPPRLPRPRPRPYYWPRP
- shrunken log2 fold change: -0.992

Sequence: RRIRTRPPRLPRPRPRPMNAPRP
- shrunken log2 fold change: 0.194

Sequence: RRIRSRPPRLPRPRPRPFNMPRP
- shrunken log2 fold change: -0.907

Sequence: RRIRPRPPRLPRPRPRPFCNPRP
- shrunken log2 fold change: -0.609

Sequence: RRIRLRPPRLPRPRPRPMMYPRP
- shrunken log2 fold change: -0.0922

Sequence: RRIRQRPPRLPRPRPRPRRDPRP
- shrunken log2 fold change: 0.308

Sequence: RRIRQRPPRLPRPRPRPGQLPRP
- shrunken log2 fold change: -0.0292

Sequence: RRIRLRPPRLPRPRPRPWNMPRP
- shrunken log2 fold change: -0.31

Sequence: RRIRNRPPRLPRPRPRPCIFPRP
- shrunken log2 fold change: -0.697

Sequence: RRIRTRPPRLPRPRPRPEWYPRP
- shrunken log2 fold change: 0.135

Sequence: RRIRGRPPRLPRPRPRPVWWPRP
- shrunken log2 fold change: 0.997

Sequence: RRIRMRPPRLPRPRPRPVVEPRP
- shrunken log2 fold change: 0.719

Sequence: RRIRNRPPRLPRPRPRPMCNPRP
- shrunken log2 fold change: -0.0631

Sequence: RRIRFRPPRLPRPRPRPTPQPRP
- shrunken log2 fold change: 0.366

Sequence: RRIRGRPPRLPRPRPRPHCEPRP
- shrunken log2 fold change: 0.22

Sequence: RRIRTRPPRLPRPRPRPLQFPRP
- shrunken log2 fold change: -0.497

Sequence: RRIRERPPRLPRPRPRPYFYPRP
- shrunken log2 fold change: -0.757

Sequence: RRIRHRPPRLPRPRPRPNEPPRP
- shrunken log2 fold change: -0.00438

Sequence: RRIRNRPPRLPRPRPRPNNKPRP
- shrunken log2 fold change: -0.63

Sequence: RRIRKRPPRLPRPRPRPLCVPRP
- shrunken log2 fold change: 0.247

Sequence: RRIRKRPPRLPRPRPRPKYHPRP
- shrunken log2 fold change: -0.204

Sequence: RRIRPRPPRLPRPRPRPQHKPRP
- shrunken log2 fold change: -0.449

Sequence: RRIRARPPRLPRPRPRPWWCPRP
- shrunken log2 fold change: -0.0725

Sequence: RRIRCRPPRLPRPRPRPNVQPRP
- shrunken log2 fold change: -0.0319

Sequence: RRIRYRPPRLPRPRPRPSYLPRP
- shrunken log2 fold change: -1.08

Sequence: RRIRCRPPRLPRPRPRPEGAPRP
- shrunken log2 fold change: 0.766

Sequence: RRIRDRPPRLPRPRPRPSQLPRP
- shrunken log2 fold change: -0.633

Sequence: RRIRWRPPRLPRPRPRPHSPPRP
- shrunken log2 fold change: -0.09

Sequence: RRIRARPPRLPRPRPRPDYVPRP
- shrunken log2 fold change: 0.353

Sequence: RRIRYRPPRLPRPRPRPKAHPRP
- shrunken log2 fold change: -0.376

Sequence: RRIRKRPPRLPRPRPRPEPKPRP
- shrunken log2 fold change: 0.191

Sequence: RRIRTRPPRLPRPRPRPTMYPRP
- shrunken log2 fold change: -0.82

Sequence: RRIRGRPPRLPRPRPRPLATPRP
- shrunken log2 fold change: 2.95

Sequence: RRIRGRPPRLPRPRPRPHFYPRP
- shrunken log2 fold change: 0.324

Sequence: RRIRMRPPRLPRPRPRPFAQPRP
- shrunken log2 fold change: 0.0306

Sequence: RRIRSRPPRLPRPRPRPARNPRP
- shrunken log2 fold change: 0.611

Sequence: RRIRRRPPRLPRPRPRPKAIPRP
- shrunken log2 fold change: 0.111

Sequence: RRIRGRPPRLPRPRPRPALMPRP
- shrunken log2 fold change: 0.879

Sequence: RRIRSRPPRLPRPRPRPPGHPRP
- shrunken log2 fold change: 0.167

Sequence: RRIRDRPPRLPRPRPRPPTFPRP
- shrunken log2 fold change: -0.158

Sequence: RRIRCRPPRLPRPRPRPADIPRP
- shrunken log2 fold change: -0.941

Sequence: RRIRQRPPRLPRPRPRPHRIPRP
- shrunken log2 fold change: -0.0425

Sequence: RRIRKRPPRLPRPRPRPKADPRP
- shrunken log2 fold change: 0.018

Sequence: RRIRRRPPRLPRPRPRPTLQPRP
- shrunken log2 fold change: 0.678

Sequence: RRIRRRPPRLPRPRPRPFSWPRP
- shrunken log2 fold change: -0.469

Sequence: RRIRIRPPRLPRPRPRPAMMPRP
- shrunken log2 fold change: -0.105

Sequence: RRIRARPPRLPRPRPRPCEHPRP
- shrunken log2 fold change: 0.0977

Sequence: RRIRSRPPRLPRPRPRPPKWPRP
- shrunken log2 fold change: 0.329

Sequence: RRIRVRPPRLPRPRPRPASRPRP
- shrunken log2 fold change: 0.275

Sequence: RRIRYRPPRLPRPRPRPYRMPRP
- shrunken log2 fold change: -0.725

Sequence: RRIRVRPPRLPRPRPRPDNLPRP
- shrunken log2 fold change: 0.0725

Sequence: RRIRIRPPRLPRPRPRPGTVPRP
- shrunken log2 fold change: -0.624

Sequence: RRIRSRPPRLPRPRPRPHKNPRP
- shrunken log2 fold change: -0.283

Sequence: RRIRHRPPRLPRPRPRPPSPPRP
- shrunken log2 fold change: 0.169

Sequence: RRIRARPPRLPRPRPRPANVPRP
- shrunken log2 fold change: -0.0645

Sequence: RRIRNRPPRLPRPRPRPKFNPRP
- shrunken log2 fold change: -0.569

Sequence: RRIRGRPPRLPRPRPRPTANPRP
- shrunken log2 fold change: 1.09

Sequence: RRIRARPPRLPRPRPRPSSIPRP
- shrunken log2 fold change: 0.101

Sequence: RRIRMRPPRLPRPRPRPCNPPRP
- shrunken log2 fold change: -0.0764

Sequence: RRIRIRPPRLPRPRPRPSTNPRP
- shrunken log2 fold change: -0.573

Sequence: RRIRDRPPRLPRPRPRPYFGPRP
- shrunken log2 fold change: -0.551

Sequence: RRIRYRPPRLPRPRPRPCGAPRP
- shrunken log2 fold change: -0.324

Sequence: RRIRSRPPRLPRPRPRPWMEPRP
- shrunken log2 fold change: -0.384
